Values belong to the binder of their own block, whether it stands above or below them.
How the values were obtained:
[1] = molecular target: T1, human IL-28 receptor on transfected 293 HEK cells (IL-28 receptor alpha subunit with endogenous CRF2-4) (human); test: cell-based or functional assay
[2] = molecular target: T1, human IL-28 receptor on transfected 293 …; test: cell-based or functional assay; remark: listed apart in the source

T1 sequence (Q8IU57 whole entry, chain 1 of 2): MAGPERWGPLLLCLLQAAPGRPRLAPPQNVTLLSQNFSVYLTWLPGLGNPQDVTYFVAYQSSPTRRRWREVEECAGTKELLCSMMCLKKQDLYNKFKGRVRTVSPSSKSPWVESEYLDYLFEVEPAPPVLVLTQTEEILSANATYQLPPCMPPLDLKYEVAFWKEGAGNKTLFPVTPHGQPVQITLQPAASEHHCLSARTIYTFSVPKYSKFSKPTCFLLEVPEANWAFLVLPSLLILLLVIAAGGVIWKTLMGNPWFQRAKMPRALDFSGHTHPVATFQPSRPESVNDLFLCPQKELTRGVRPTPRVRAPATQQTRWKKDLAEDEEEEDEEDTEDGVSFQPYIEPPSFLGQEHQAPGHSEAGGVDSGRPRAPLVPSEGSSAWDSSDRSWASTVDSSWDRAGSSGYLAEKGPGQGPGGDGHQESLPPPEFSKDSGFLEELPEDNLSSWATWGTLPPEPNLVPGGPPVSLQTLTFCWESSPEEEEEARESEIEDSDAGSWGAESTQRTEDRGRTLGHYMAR
T1 sequence (Q08334 whole entry, chain 2 of 2, further chain): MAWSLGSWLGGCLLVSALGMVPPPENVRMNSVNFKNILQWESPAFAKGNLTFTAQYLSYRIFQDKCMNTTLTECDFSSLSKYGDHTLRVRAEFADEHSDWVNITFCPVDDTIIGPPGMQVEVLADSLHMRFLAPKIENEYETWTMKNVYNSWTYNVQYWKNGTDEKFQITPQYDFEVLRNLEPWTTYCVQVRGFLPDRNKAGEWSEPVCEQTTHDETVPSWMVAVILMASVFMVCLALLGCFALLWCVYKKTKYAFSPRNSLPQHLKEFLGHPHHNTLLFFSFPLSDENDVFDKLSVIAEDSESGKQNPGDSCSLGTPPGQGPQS

bioactivity in an ISRE assay [1]: 30 fold higher than the C112-C171 form
B1: C1-C3 form (C16-C113) of wild-type E. coli-derived IL-29 (ligand)
chain: MGPVPTSKPTTTGKGCHIGRFKSLSPQELASFKKARDALEESLKLKNWSCSSPVFPGNWDLRLLQVRERPVALEAELALTLKVLEAAAGPALEDVLDQPLHTLHHILSQLQACIQPQPTAGPRPRGRLHHWLHRLQEAPKKESAGCLEASVTFNLFRLLTRDLKYVADGNLCLRTSTHPEST

ISRE Signaling of Transfected 293 Cells Following Class II Cytokine Stimulation (Fold Induction), ISRE-Luc./IL-28R, IL-28A 125 ng/ml [2]: 125 fold induction
B2: zcyto20 (IL-28A), human (ligand)
chain: VPVARLHGALPDARGCHIAQFKSLSPQELQAFKRAKDALEESLLLKDCRCHSRLFPRTWDLRQLQVRERPMALEAELALTLKVLEATADTDPALVDVLDQPLHTLHHILSQFRACIQPQPTAGPRTRGRLHHWLYRLQEAPKKESPGCLEASVTFNLFRLLTRDLNCVASGDLCV

ISRE Signaling of Transfected 293 Cells Following Class II Cytokine Stimulation (Fold Induction), ISRE-Luc./IL-28R, IL-29 125 ng/ml [2]: 108 fold induction
B3: IL-29 (SEQ ID NO: 4) (ligand)
chain: GPVPTSKPTTTGKGCHIGRFKSLSPQELASFKKARDALEESLKLKNWSCSSPVFPGNWDLRLLQVRERPVALEAELALTLKVLEAAAGPALEDVLDQPLHTLHHILSQLQACIQPQPTAGPRPRGRLHHWLHRLQEAPKKESAGCLEASVTFNLFRLLTRDLKYVADGNLCLRTSTHPEST
